Data on one substance can be found in article PMC5267338.

Assay [1] deals with human mitochondrial ferredoxin 1 (FDX1), holo form with [2Fe-2S] cluster (H. sapiens). As to the kind of experiment: ITC. On the technique in general: ITC needs no label: the signal is the heat of the interaction.
Assay [2] has as its target human mitochondrial ferredoxin 2 (FDX2), holo form with [2Fe-2S] cluster (H. sapiens) (UniProt Q6P4F2). As to the kind of experiment: ITC.

pKd: −log10 of the molar value.

Chain of [Acp]2:[ISD11]2:[NFS1]2 complex (cysteine desulfurase complex) (Q9Y697 53-457): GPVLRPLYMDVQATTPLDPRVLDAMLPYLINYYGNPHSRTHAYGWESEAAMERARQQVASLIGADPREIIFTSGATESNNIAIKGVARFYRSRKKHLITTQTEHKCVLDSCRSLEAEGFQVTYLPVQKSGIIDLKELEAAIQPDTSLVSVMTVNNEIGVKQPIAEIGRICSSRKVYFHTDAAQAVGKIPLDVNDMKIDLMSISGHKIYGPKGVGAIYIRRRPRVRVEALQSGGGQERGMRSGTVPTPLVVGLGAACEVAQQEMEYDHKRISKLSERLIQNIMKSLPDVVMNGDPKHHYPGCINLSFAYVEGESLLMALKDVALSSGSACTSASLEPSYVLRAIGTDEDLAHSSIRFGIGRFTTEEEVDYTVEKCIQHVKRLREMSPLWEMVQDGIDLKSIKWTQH
Chain of [Acp]2:[ISD11]2:[NFS1]2 complex (cysteine desulfurase complex) (Q9HD34 whole entry): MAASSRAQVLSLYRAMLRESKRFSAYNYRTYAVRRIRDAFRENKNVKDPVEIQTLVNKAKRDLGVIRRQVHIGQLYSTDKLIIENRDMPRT
Chain of [Acp]2:[ISD11]2:[NFS1]2 complex (cysteine desulfurase complex) (P0A6A8 2-78): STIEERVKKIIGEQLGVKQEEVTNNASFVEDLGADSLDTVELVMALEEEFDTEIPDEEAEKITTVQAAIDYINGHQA
Chain of human mitochondrial ferredoxin 2 (FDX2), holo form with [2Fe-2S] cluster (H. sapiens) (Q6P4F2 53-183): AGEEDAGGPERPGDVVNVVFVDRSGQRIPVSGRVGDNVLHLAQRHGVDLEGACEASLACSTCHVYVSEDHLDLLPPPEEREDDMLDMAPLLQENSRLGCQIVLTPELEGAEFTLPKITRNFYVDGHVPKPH

Turning to “[Acp]2:[ISD11]2:[NFS1]2 complex (cysteine desulfurase complex) (from UniProt Q9Y697 53-457; Q9HD34 1-91; P0A6A8 2-78)”, the pKd in assay [1] is 4.38; in assay [2], 4.83.

For orientation: pKd means the Kd on a negative log10 scale, so that one unit is a factor of ten. Lower therefore signals a large Kd.
